From patent US20110009597A1, “RECOMBINANT GANODERMA LUCIDIUM IMMUNOMODULATORY PROTEIN (rLZ-8) AND USES THEREOF” (priority 2008, published 2011)

What was measured:
[1] = system: Human Promyelocytic Leukemia NB4 Cells; assay: Killing effect of rLZ-8 on NB4 cells (MTT, OD570nm); format: cell-based; conditions: As2O3 10 μg ml^−1, 48 h
Protocol: After filtration and degerming, we prepared 8 concentrations using IMDM culture medium which are respectively 0.78 μg·ml^−1, 1.56 μg·ml^−1, 3.125 μg·ml^−1, 6.25 μg·ml^−1, 12.5 μg·ml^−1, 25 μg·ml^−1, 50 μg·ml^−1, 100 μg·ml^−1.
On 96-orifice culture medium plate, the pilot orifice plus NB4 tumor cells 0.1 ml and rLZ-8 0.1 ml, rLZ-8 concentrates from low to high; negative control group plus NB4 tumor cells and culture medium of 0.1 ml respectively; positive drug control group arsenic trioxide As2O3; make six-aperture multipunches for each group. Placing in 37° C., 5% CO2 incubator 48 h, adding MTT15 μl (5 mg ml^−1) prior to the termination of 4 h, after the termination of cell culture by adding 100 μl 0.1 mol L^−1 hydrochloric acid isopropyl alcohol, testing on the enzyme-linked immunosorbent OD570nm values.

[2] = system: Human Chronic Myelogenous Leukemia K562 Cells; assay: Lethal effect of rLZ-8 on K562 cells (MTT, OD570nm); format: cell-based; conditions: As2O3 10 μg ml^−1, 48 h
Protocol: After sterilization of rLZ-8, we prepared 6 concentrations using IMDM culture medium, which are respectively 3.125 μg·ml^−1, 6.25 μb·ml^−1, 12.5 μg·ml^−, 25 μg·ml^−1, 50 μg·ml^−1, 100 μg·ml^−1.
On 96-orifice culture plate, the pilot aperture plus K562 tumor cells 0.1 ml and rLZ-8 0.1 ml, rLZ-8 concentrations from low to high; negative control group plus K562 tumor cells and culture medium of the 0.1 ml respectively; positive drug control group arsenic trioxide As2O3; make six-aperture multipunches for each group. Placing in 37° C., 5% CO2 incubator 48 h, adding MTT15 μl (5 mg ml^−1) prior to the termination of 4 h, after the termination of cell culture by adding 100 μl 0.1 mol L^−1 hydrochloric acid isopropyl alcohol, testing OD values570nm on the enzyme immunosorbent detector.

NB4 = assay: Annexin V-FITC flow cytometry, apoptosis of NB4; format: cell-based; conditions: NB4, As2O3 0.5 μg·ml^−1, 24 h, Annexin V/PI
Protocol: (§1) FACS Calibur flow cytometry, U.S. Becton-Dickinson.Coompany. NB4, HL-60. rLZ-8 is prepared with IMDM culture medium containing 2% FCS into the preparation of 0.1 μg·ml^−1, 0.5 μg·ml^−1, 2.5 μg·ml^−1, arsenic trioxide (As2O3) 0.5 μg·ml^−1 AnnexinV-FITC kit: combining buffer solution 4×; Propidium iodide solution (PI), 20 μg·ml−1, 0.2 ml; recombinant human Annexin V/FITC, 0.1 ml.
(§2) Establish NB4 normal control group, positive drug group (As2O3 0.5 μg·ml^−1), protein low-dose group (0.1 μg·ml^−1), medium-dose group (0.5 μg·ml^−1), high-dose group, (2.5 μg·ml^−1); establish HL-60 normal control group, protein low-dose group (0.1 μg·ml^−1), medium-dose group (0.5 μg·ml^−1), high-dose group, (2.5 μg·ml^−1).
(§3) Mix NB4 and HL-60 cell into 24-orifice plate respectively, 1 ml/hole supply rLZ-8 in different concentrates, set 3-orifice multipunches for each group. Put them in 37° C., 5% CO2 incubator for 24 h, collect the cells of each concentrate, washes the cells twice with pre-cooled PBS 4° C., with 250 μl binding buffer solution re-suspending cells and regulates the cell density to 1×10^6/ml, taking out 100 μl to 5 ml streaming tube, and add 5 μl Annexin V/FITC and 10 μl 20 μg·ml^−1 PI solution, after mixing put it in room temperature and lucifuged hatching 15 min, add 400 μl PBS by flow cytometry analysis.

HL-60 = assay: Annexin V-FITC flow cytometry, apoptosis of HL-60; format: cell-based; conditions: HL-60, positive drug group, 24 h, Annexin V/PI
Protocol: as §1, §2, §3

WBC [3] = assay: Cyclophosphamide low-leucocyte mice model, WBC; format: in vivo; parameters: unit not given here; conditions: Genlei Scimax 3.2 μg·kg−1
Protocol: rLZ-8 preparation of sterile saline. Divide them into 5 μg·kg^−1, 2.5 μg√kg^−1, 1.25 μg·kg^−1, 0.62 μg·kg^−1 dose groups.
Genlei™ Scimax™ [Recombinant human granulocyte colony-stimulating factor injection (rhG-CSF)], production lot: 20060403; 75 μg/vial is prepared with sterile normal saline into the preparation of 3.2 μg·kg^−1, 0.2 ml/vial.
Cyclophosphamide (CP) for injection (the production lot number 050216; 200 mg/vial) is prepared with sterile normal saline into the preparation of 12.5 mg·kg^−1, 0.2 ml/vial.
Normal control group, several protein dose groups, positive control group (Genlei™ Scimax™).
(§4) Excluding the normal control group (given same normal saline), each group of mice were given tail vein injection of cyclophosphamide, 1.25 μg·kg^−1, 0.2 ml/vial, for 3 consecutive days. On 3rd day, rat tail venous blood sampling, sent to Jilin University First Hospital laboratory, cell analyze the number of WBC. After successful modeling, they were given to the above groups respective dose of rLZ-8 and positive drugs (Genlei™ Scimax™) treatment, the normal control group and CP groups were given same normal saline, on the 3rd, 7th and 14th day of the treatment to draw venous blood from mice tail respectively, sent to Jilin University First Hospital testing the numbers of WBC. Compare WBC changes before and after the treatment for analysis of drug efficacy.

WBC [4] = assay: Cyclophosphamide low-leucocyte rat model, WBC; format: in vivo, rats; parameters: unit not given here; conditions: Genlei Scimax 9.45 μg·kg−1
Protocol: rLZ-8 preparation of sterile saline. Divide them into 20 μg·kg^−1, 10 μg·kg^−1, 5 μg·kg^−1, 2.5 μg·kg^−1, 1.25 μg·kg^−1, 0.625 μg·kg^−1, 0.31 μg·kg^−1 dose groups.
Genlei™ Scimax™ [Recombinant human granulocyte colony-stimulating factor injection (rhG-CSF)], production lot: 20060403; 75 μg/vial is prepared with sterile normal saline into the preparation of 9.45 μg·ml^−1, 0.1 ml/vial.
Cyclophosphamide (CP), the production lot number 050216; 200 mg/vial is prepared with sterile normal saline into the preparation of 20 mg·ml^−1, 0.1 ml/vial, namely, 49 mg·kg^−1.
Normal control group, protein low-dose group, protein medium-dose group, protein high-dose group, positive control group (Genlei™ Scimax™)
as §4, with “rats” for “mice”, “20 mg·ml^−1, 0.1” for “1.25 μg·kg^−1, 0.2”

WBC [5] = assay: Prevention of radiation leucopenia model of mice, WBC; format: in vivo; parameters: unit not given here; conditions: Genlei Scimax 3.2 μg
Protocol: rLZ-8 preparation of sterile saline. Divide them into 5 μg·kg^−1, 2.5 μg·kg^−1, 1.25 μg·kg^−1, 0.62 μg·kg^−1 dose groups. 0.2 ml/vial.
Genlei™ Scimax™ [Recombinant human granulocyte colony-stimulating factor injection (rhG-CSF)], production lot: 20060403; 150 μg/vial is prepared with sterile normal saline into the preparation of 3.2 μg·kg^−1, 0.2 ml/vial.
(§5) The mice were irradiated by 7.5 Gy γ-ray (180 mV, 15 mA) and then divided into seven groups (n=10): (A) negative control; (B) 5 μg·kg−1 dose; (C) 2.5 μg·kg−1 dose; (D) 1.25 μg·kg−1 dose; (E) 0.62 μg·kg−1 dose; (F) positive control (Genlei™ Scimax™); (G) model group. Before modeling 5 days, mice in each group were administered with Genlei™ Scimax™ and rLZ-8 for 5 days, on the 5th day, mice were radiated, for 5 days, and on the 7th day, drew blood from tail, tested the number of WBC, weight spleen, calculated index of spleen.

WBC [6] = assay: Treatment of radiation leucopenia model of mice, WBC; format: in vivo; parameters: unit not given here; conditions: Genlei Scimax 3.2 μg·kg^−1; 7.5 Gy γ-ray
Protocol: (§6) rLZ-8 preparation of sterile saline. Divide them into 5 ∞g·kg^−1, 2.5 μg·kg^−1, 1.25 μg·kg^−1, 0.62 μg·kg^−1 dose groups. 0.2 ml/vial.
(§7) Genlei™ Scimax™ [Recombinant human granulocyte colony-stimulating factor injection (rhG-CSF)], production lot: 20060403; 150m/vial is prepared with sterile normal saline into the preparation of 3.2 μg·kg^−1, 0.2 ml/vial.
as §5, with “group. Together with modeling,” for “group. Before modeling 5 days,”, “for 9” for “for 5”, “days,” for “days, on the 5th day, mice were radiated, for 5 days, and on the 7th day,”

spleen = assay: Colony forming unit-spleen and spleen index in radiation model of mice; format: in vivo; conditions: Genlei Scimax 3.2 μg·kg^−1
Protocol: as §6, §7
as §5, with “group. Together with modeling,” for “group. Before modeling 5 days,”, “for 9” for “for 5”, “days,” for “days, on the 5th day, mice were radiated, for 5 days, and on the 7th day,”

## arsenic trioxide [As2O3, reference compound]
[1]
  Growth inhibition rate (%): 72%
  OD570 nm: 0.33 ± 0.01
[2]
  Growth inhibition rate (%): 78.2%
  OD570 nm: 0.22 ± 0.03
NB4
  Apoptosis rate: 23.4%
HL-60
  Apoptosis rate: 39.7%

B1: Genlei ™ Scimax ™: Recombinant human granulocyte colony-stimulating factor injection (rhG-CSF) (protein, UniProt P09919 31-207, looked up)
Granulocyte …: TPLGPASSLPQSFLLKCLEQVRKIQGDGAALQEKLVSECATYKLCHPEELVLLGHSLGIPWAPLSSCPSQALQLAGCLSQLHSGLFLYQGLLQALEGISPELGPTLDTLQLDVADFATTIWQQMEELGMAPALQPTQGAMPAFASAFQRRAGGVLVASHLQSFLEVSYRVLRHLAQP
WBC [3]
  WBC, 3rdday of medication: 5.5 ± 0.12
  WBC, 7thday of medication: 22.7 ± 0.12
  WBC, 14thday of medication: 13.0 ± 0.19
WBC [4]
  WBC, 3rdday of medication: 1.4 ± 0.11
  WBC, 7thday of medication: 13.1 ± 0.21
  WBC, 14thday of medication: 10.3 ± 0.14
WBC [5]; 5th day of administration before radiation
  WBC, 5th day (rLZ-8): 21.8 ± 0.35
WBC [5]; after 7.5 Gy γ-ray
  WBC, 5th day: 0.26 ± 0.20
  WBC, 7th day: 0.22 ± 0.12
WBC [6]
  WBC, 5th day: 0.68 ± 0.35
  WBC, 7th day: 0.58 ± 0.35
  WBC, 9th day: 0.80 ± 0.11
spleen
  colony forming unit-spleen number: 6.0 ± 0.11
  growth rate: 26%
  index (spleen): 0.20 ± 0.10
